Assay: soluble on expression in E. coli; label from the status in PepcDB or PDB records

Soluble on expression in E. coli, not soluble:
MGSDKIHHHHHHMDTIAESIQKKAYELGYEKCGIIPINLIDEYADKFNERMEKIPKSKMFYKSQERLIKPKEIYPWAKSVVVLTSVYGKYKVPQELNGHIAKAYLFDTRVDKNTKEYQNNRALEEYMQELGLKVETNQKFGVVGMRWAALQAGVGIIRRNNFLYTESGSWVHLEAWVTDRKMELKETNNVKKCPKSCNRCIMSCPTKSLSEPYTMSPTECVSFLTTFGGRNLPEEPLRKKFGDCIYGCDICQDACPMNKGKWKDEEEFPGLAELAPSLTPENILNMDEDFYREKVQPKFFYLSPEDLWKWKIDALCYIGNNYSESYKPLLVNACNNANNKISEMANLICSELSLQ
MGSDKIHHHHHHMDVANKIKVIDRLRLGFAVLVAKSVTFLVRSLRLGAASVLPGSIARRIEPRLLQLLSQQVQNGVIIIAGTNGKTTTALLLCTILENKGYRVCHNSTGANLENGLMTALLDSTNLVGTLDVDYAILEVDENIVPRVLKPLQPRIILCLNLFRDQLDRYGEVDTISKRWTKVISTLPRETVVIPNADDPTLSLLGQQLPQKVLFFGLNEPEHYLEAIPHAVDSIYCPQCGHSLDYQGVYLSHLGDFTCPSCGFTKSQPTLASREWSQILVGLYNKYNTLAATTAAIELGVDETTIRDTINNFQAAFGRAEDLVIDGKRVRILLSKNPVGTNETIRVVTQSTDKTTLLVLNDRTPDGTDVSWIWDVDTEKLVERGGTLVVSGDRVYDMALRLRYSEKSAQSNLNLIVEADLRQAIATALEHTPATETLHILPTYSAMLEVREVLTGRKIL
MGSDKIHHHHHHMDVTQLKMLHNAKVISEIKKGFSVDRKYQVDETYLVRVFPIDLLQERKQEFKIIQALDSQTPFVPKAYDFGFIEREGYMIISYLRGEDAESGMTHLSHSEQFKAGFSAGEILREVHKIPLDIPKMNWLDFQTAKFKRKVEELKELEITASFLTDTEKFVYKNIARLKNRPICLQHGDFHPANIILNNKKFVGLIDFNRLEFGDPLFDLAKIGFFTTEVSIPFARGNILGYIDKEEVTDFWNLYALYTAMHITSAVSWAAKNESRNFKKLMDYAVKTAASHDNFQKIVPNWMNEEEFK
MGSDKIHHHHHHMDWTNIPPLYALKAFESAAKHQSFTLAASELFISQSAISKHINTIEIFFGRKLFYRKGPKVFLTKEGESFAGDLRHAFEILSKACENIHRAGIVLTISSPYTFSIRQFIPVLRKYKNQDGFPIVTVETINDDYSHSIVNLKNHDATVKYGDGKFSDEWNCTLLSPECLIVVVSPKLLHLFEKDNRILIDLVYVKSRELDWFSWCEESRLKERFQVINKYEFESMDSAINAVIKGLGVAVVDIGMVCDELMDGVLLTPFKFSFYSGRGYYFLRGGDDDNYLSSLLECVRLDLSGRGLAELCFNDKCDMGNCRLAATKKITK
MGSDKIHHHHHHMDYMKKLLGAEDLFDRDEPLKGVRVLEVCSVVLGPAATDYLAEFGAEVIKFEARRGDQMRYVTPYAYFWRNLSPGLLEQNHNKYWVGMHLGHPKARELFYEFVKRSDVVVDNLTPGRLSKWGISYDRLREINPRIIQLHVSGFGSWGPYTGRTSYDAIAQSEGGLAYITGFEGRGPLKSGVWIADWTTALMCAVAIVAALNYRERTGEGQYIDYSQVENVIRFLDWTWTYVDMTGENRERVGNRDLAICPSDLFDCKDGWVAIVAFSEEEFKGLCQAMGRMDLYEKFADPLERLKDENARLILKEIAEWAKTKTVKDVEELADKYGFAASHVIEVDEAYYSEHLRERGAIMAYDDPLYGEFVEPCYPPRMETPSRLKWGARPLGFDNEFVLTKYLGLSMDEIEQLYEEGVIYRWNPDVKPQCPPPDWDGKKGLKFP
MGSDKIHHHHHHMDYWEKADYSWSDDSKRHILTPSSKSRTLFYYIQEIGQFKASRPYYTERAHLPSYLIKFTLNGTGELRYRYHTYSLQRGDLFFIDCRDYQYYQATSEDPWEMDWIHFEGGNSGAFFQEFMKNGSPVFSTNQLPEDNPIHLIIQQLLQLQDLQHAQTDYQSSVLIHQLLNELLLQKYRQDFTYETIPSLVLEMKAYIDQHFKETISLEDLAQLFHLNKYQLNKEFSKYIGLPPIKYQISKKISYSKDLLRYSNQTVKEIAVDVGLENYAYFSRLFKKRTGLTPSQYRKSGF
MGSDKIHHHHHHMEATTNNMKDVTGAELLICTIGHSTHPLEEFINLLKKNEVTHLLDVRTVPRSRHNPQFNKETLPDALGAIGIKYTHLSGLGGLRHARKDSINEGWRNASFRGYADYMQTQEFVENVNRVIELAAHDRCALMCAEAVPWRCHRSLIADALVVRGVRVEDIIDNHGRKPHSLTPWAQAEGVRIFYPAQQGRLI
MGSDKIHHHHHHMEEARIKALISLLDDEDVEVISQVEKELLAQGGSMIPFLEKEWEENFNPIVQKRIEDLVHLLQFVLLEDRLSQWKNKGGTDLMEGLWLICTYQYPDLEFNTIKSAMEQIYYEVWLDMKPDMLPLEQVKLVMNNVLFNKLKFSANTKNFHSPANSMISQVLESKKGNPISLCCIYMMVAQKLKLPVYGVNLPTLFILTYKSDDTQFYISPFHKGLIFTKEDIDNYLLQLNLAPIDLYYQPCNNIDIVARVLRNLIVSFEKLSEMERVDDVKKMLHFLTGEKY
MGSDKIHHHHHHMEEGSAGMGMSQNNSTLVAPQPKGIIDPATGKPVGSNDAYFTEINDELADKGFLVTSTDELITWARTGSLMWMQFGLACCAVEGLMQASGPRYDMERFGVAPRASPRQSDVMIVAGTLTNKMAPALRKVYDQMPEPRYVISMGSCANGGGYYHYSYAVVRGCDRVVPVDIYVPGCPPTAEALLYGVLLLQKKIRRTGTIER
MGSDKIHHHHHHMEETAETPAAVIPPPPPEDEPAELPATLGFVSHQPVMDRQQRVVAYDFFVRQGKRNIEAGKQQEFDRLLLATLHNMDIFRLLAYRRAFVHIAMTSLDDPQLRGMPAGSVIFVLEPLPGMVVAEHMLRQLDELQKLGLRFALEPAAYDQNMLSPALQADLFSRVDFMVLDFAGPSTRVLAPILDQLPKRYPGARWLARNVGTAEDMDVCLRAPGHNRFALFHGPFVTTAHALEGGKVDTNQTRVLQIMRLLRTNADPKEVEAQFKLDSVLLFKLLRFINSPIHGLSRKVQTIEETLLLLGRETLFKWLSMLLFTSRKEDGTALSLLEKSLIRARFMEKLGGYRGNKLEAEHLFLTGMFSLLDVLLNQPFPDVLDPLELPLTVREAVVERKGIFAPHLALAMACEQGDNVQIEALAKVLDFDLDLANQYYLDSVVWAQVVLRDSEVHNNVEAV
MGSDKIHHHHHHMEETFQLLYDTYHQDLYQFLFYMVKDKNQTEDLLQEVYIRVLNSYHTFEGRSSEKTWLLSIARHVAIDWFRKQQTIRQRILGTFDWDTQDVRDQQLLPDELAVQHENVREISCALDQCTIDQRAVIILRFIQGYSIQETAKALRFSESKVKTTQHRGLKVLRKHMELLREELMDDEVRMERRTDKGVVKSTSGS
MGSDKIHHHHHHMEFSAKQIAAFIQGEIIGDENATVHTFAKIEEGMPGAISFLSNPKYTPYIYETQSSIVLVNKDFVPEHEIRATLIKVDNAYESLAKLLNLYEMSKPKKQGIDSLAYIAPSAKIGENVYIGAFAYIGENAVIGDNTQIYPHTFVGDGVKIGNGCLLYSNVNVYHDCRIGNECILHSGAVIGADGFGFAPTPNGYDKIPQIGIVILEDKVDIGANTCVDRATMGATIIHSGAKIDNLVQIAHNDEIGSHTVMAAQVGIAGSAKIGEWCMFGGQVGIAGHITIGDRVNLGAQSGIPSSIKADSVLIGTPPMEPKAYFKAAVVTKNLPDMQKEIRNLRKEVEELKQLLNK
MGSDKIHHHHHHMEGYLNSRLVRNAARVALVVAIPATLAGCGINTIPTQDEATKTAWAEVQNQYQRRADLIPNLVATVKGYAAQEKDVLTAVTEARASATQVKVDASTITDPAQFQKFAAAQDQLSGVLGRLMVIQEQYPDLKSNQNFLALQSQLEGTENRITIARRDYNETAQKYNTTLRTFPSLLWAKTLYSDQKPAQLFQASAAAQSAPTVDFSSPPTATPPKVQ
MGSDKIHHHHHHMEIIKKKFPKIKRDYLDTLQINIGYKCNQACSHCHVDSSPSRTEMMSDDIIKLIPKVIKANEIKLLDITGGAPELHPKFKQLVIEVRSLNVEVMDRCNLTILKEPGYESLAGFLASNKVQITASLPCYLEGNVDKQRGKGVFEKSILALKQLNNLGYGIKDKGLLLNLVYNPSTPQLPPSQKELEDIYRRELKERYGIFFSNLYVLANMPINRYENYLKTIGKLEEYNKLLKDNHNPGNINSVMCRSTLSVDWKGFLYDCDFNQQLGMKRNGNVKHLNDLLIPLVSLKNNPISTGNHCFGCTAGAGSSCGGELT

— the DeepSol protein solubility set
